The record followed here is patent US20060029947A1.

In the assay the target is Bacillus anthracis protective antigen (PA) (Bacillus anthracis) (UniProt P13423).
Bacillus anthracis protective antigen (PA) (Bacillus anthracis), sequence (P13423 30-764 limits assumed): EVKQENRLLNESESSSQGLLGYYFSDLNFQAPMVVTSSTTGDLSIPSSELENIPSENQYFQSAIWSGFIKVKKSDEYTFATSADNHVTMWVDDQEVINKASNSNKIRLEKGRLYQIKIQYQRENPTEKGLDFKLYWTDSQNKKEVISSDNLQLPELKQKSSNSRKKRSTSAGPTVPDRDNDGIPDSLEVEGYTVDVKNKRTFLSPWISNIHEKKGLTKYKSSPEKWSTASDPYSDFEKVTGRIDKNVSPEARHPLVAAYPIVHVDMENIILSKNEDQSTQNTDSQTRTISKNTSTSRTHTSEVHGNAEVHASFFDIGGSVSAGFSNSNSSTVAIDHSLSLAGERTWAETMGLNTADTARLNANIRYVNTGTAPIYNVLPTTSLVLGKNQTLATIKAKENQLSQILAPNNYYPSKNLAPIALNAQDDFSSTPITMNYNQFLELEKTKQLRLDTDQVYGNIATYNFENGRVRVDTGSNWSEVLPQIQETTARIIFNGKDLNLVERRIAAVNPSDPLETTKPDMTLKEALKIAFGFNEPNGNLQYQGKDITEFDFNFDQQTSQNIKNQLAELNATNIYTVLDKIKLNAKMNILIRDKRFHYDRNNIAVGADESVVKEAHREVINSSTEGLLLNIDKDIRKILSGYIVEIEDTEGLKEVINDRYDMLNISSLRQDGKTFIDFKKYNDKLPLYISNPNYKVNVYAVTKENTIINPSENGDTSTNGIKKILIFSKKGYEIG

26-10 scFv-g3p fusion (pAK200), sequence (P69168 268-424): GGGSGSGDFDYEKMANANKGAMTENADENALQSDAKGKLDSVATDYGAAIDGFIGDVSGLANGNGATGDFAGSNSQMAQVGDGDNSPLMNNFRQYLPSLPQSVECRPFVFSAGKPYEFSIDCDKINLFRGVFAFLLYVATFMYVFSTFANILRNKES

In turn, “26-10 scFv-g3p fusion (pAK200) (from UniProt P69168 268-424)” yielded a M (mean fluorescence) of 7.25.
